Measured values published in article PMC9482650, “Quantitative fragmentomics allow affinity mapping of interactomes” (Nature Communications, 2022).

Assays:
Experiment in all cases: holdup assay
Parameters in all cases: key: below the threshold = too weak to quantify, mostly under pKd 3.1 to 4
Details in all cases: plain residues with an end cap or a label only (N-terminal biotin on a linker: ado-ado)
APBA3_1, O96018 = target: T1, APBA3_1, O96018
T1 sequence (O96018 389-490, limits assumed, looked up): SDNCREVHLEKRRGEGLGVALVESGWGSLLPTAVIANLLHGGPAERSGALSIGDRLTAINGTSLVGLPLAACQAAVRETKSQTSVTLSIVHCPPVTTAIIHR

ARHGEF11, O15085 = target: T2, ARHGEF11, O15085
T2 sequence (O15085 42-136, limits assumed, looked up): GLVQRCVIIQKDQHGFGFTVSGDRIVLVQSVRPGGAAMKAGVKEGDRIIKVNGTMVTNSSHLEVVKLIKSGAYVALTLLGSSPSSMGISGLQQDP

CASK, O14936 = target: CASK, O14936
CASK, O14936, sequence (O14936 487-570): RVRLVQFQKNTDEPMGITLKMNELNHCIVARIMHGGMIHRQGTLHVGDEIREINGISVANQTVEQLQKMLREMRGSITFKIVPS

DFNB31_2, Q9P202 = target: T3, DFNB31_2, Q9P202
T3 sequence (Q9P202 274-371, limits assumed, looked up): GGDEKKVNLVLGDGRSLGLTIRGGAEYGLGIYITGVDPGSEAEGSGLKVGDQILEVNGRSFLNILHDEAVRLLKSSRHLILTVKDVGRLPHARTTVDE

DFNB31_3, Q9P202 = target: T4, DFNB31_3, Q9P202
T4 sequence (Q9P202 811-907, limits assumed, looked up): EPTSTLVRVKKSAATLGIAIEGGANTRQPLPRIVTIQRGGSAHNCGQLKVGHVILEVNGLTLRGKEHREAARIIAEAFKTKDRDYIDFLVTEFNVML

DLG1_1, Q12959 = target: DLG1_1, Q12959
DLG1_2, Q12959 = target: DLG1_2, Q12959
GIPC2, Q8TF65 = target: GIPC2, Q8TF65
GIPC2, Q8TF65, sequence (Q8TF65 112-203): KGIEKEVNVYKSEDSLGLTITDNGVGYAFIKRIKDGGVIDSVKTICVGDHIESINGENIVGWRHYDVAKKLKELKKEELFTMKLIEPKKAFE

GOPC, Q9HD26 = target: GOPC, Q9HD26
HTRA3, P83110 = target: T5, HTRA3, P83110
T5 sequence (P83110 354-453, limits assumed, looked up): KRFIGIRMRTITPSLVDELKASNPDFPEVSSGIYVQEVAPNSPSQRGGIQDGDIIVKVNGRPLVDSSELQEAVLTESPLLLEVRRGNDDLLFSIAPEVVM

IL16_3, Q14005 = target: IL16_3, Q14005
IL16_3, Q14005, sequence (Q14005 1107-1207): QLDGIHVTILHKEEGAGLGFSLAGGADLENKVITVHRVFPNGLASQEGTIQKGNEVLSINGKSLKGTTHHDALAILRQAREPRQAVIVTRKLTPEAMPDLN

Inadl_10, Q8NI35 = target: Inadl_10, Q8NI35
Inadl_10, Q8NI35, sequence (Q8NI35 1673-1763): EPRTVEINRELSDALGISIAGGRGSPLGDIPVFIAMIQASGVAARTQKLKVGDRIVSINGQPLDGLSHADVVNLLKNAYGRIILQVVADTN

Inadl_4, Q8NI35 = target: Inadl_4, Q8NI35
Inadl_4, Q8NI35, sequence (Q8NI35 547-651): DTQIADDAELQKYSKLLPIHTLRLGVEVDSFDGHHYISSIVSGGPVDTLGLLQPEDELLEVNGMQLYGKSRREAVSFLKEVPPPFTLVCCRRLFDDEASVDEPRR

LNX2_2, Q8N448 = target: T6, LNX2_2, Q8N448
T6 sequence (Q8N448 334-432, limits assumed, looked up): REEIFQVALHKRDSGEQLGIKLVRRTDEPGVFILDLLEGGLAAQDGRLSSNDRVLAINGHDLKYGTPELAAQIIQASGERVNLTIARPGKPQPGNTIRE

MAGI2_6, Q86UL8 = target: MAGI2_6, Q86UL8
MAGI2_6, Q86UL8, sequence (Q86UL8 1141-1229): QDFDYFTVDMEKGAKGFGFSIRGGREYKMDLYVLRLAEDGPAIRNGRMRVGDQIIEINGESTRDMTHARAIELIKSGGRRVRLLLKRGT

MPDZ_12, O75970 = target: T7, MPDZ_12, O75970
T7 sequence (O75970 1857-1958, limits assumed, looked up): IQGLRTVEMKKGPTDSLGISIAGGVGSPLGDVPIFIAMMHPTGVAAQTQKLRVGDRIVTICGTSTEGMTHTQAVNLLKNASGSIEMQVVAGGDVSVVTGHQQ

NHERF4_2, Q86UT5 = target: NHERF4_2, Q86UT5
NHERF4_2, Q86UT5, sequence (Q86UT5 220-308): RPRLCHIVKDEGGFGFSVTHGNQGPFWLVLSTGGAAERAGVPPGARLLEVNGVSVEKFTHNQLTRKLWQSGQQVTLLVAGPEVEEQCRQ

NOS1, P29475 = target: NOS1, P29475
NOS1, P29475, sequence (P29475 9-101): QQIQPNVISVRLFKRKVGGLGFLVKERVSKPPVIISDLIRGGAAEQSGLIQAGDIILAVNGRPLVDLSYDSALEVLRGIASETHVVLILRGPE

PICK1, Q9NRD5 = target: PICK1, Q9NRD5
PICK1, Q9NRD5, sequence (Q9NRD5 17-115): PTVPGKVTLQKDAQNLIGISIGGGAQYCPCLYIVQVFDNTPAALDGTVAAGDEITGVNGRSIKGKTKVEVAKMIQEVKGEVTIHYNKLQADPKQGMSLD

PTPN3, P26045 = target: PTPN3, P26045
PTPN3, P26045, sequence (P26045 505-587): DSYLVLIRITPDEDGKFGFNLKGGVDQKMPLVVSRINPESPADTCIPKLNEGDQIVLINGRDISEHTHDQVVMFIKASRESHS

RAPGEF6, Q8TEU7 = target: T8, RAPGEF6, Q8TEU7
T8 sequence (Q8TEU7 525-625, limits assumed, looked up): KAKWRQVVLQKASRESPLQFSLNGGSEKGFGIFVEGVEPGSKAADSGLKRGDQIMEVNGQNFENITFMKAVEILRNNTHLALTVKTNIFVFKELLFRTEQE

SCRIB_1, Q14160 = target: SCRIB_1, Q14160
SCRIB_1, Q14160, sequence (Q14160 718-814): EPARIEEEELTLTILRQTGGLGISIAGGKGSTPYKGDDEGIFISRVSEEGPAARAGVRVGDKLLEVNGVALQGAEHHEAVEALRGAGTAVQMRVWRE

SNTB1, Q13884 = target: T9, SNTB1, Q13884
T9 sequence (Q13884 107-205, limits assumed, looked up): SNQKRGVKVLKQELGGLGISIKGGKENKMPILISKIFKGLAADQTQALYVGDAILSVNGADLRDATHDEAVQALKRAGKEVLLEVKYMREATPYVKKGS

SNTG1, Q9NSN8 = target: T10, SNTG1, Q9NSN8
T10 sequence (Q9NSN8 52-150, limits assumed, looked up): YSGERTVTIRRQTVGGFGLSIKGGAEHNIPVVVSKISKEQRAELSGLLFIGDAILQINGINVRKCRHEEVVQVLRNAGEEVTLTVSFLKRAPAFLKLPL

SNX27, Q96L92 = target: SNX27, Q96L92
TJP1_3, Q07157 = target: TJP1_3, Q07157
TJP1_3, Q07157, sequence (Q07157 416-512): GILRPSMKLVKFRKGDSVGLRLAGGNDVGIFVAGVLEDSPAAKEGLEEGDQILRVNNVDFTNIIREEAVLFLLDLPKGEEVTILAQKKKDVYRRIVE

TJP3_3, O95049 = target: T11, TJP3_3, O95049
T11 sequence (O95049 375-456, limits assumed, looked up): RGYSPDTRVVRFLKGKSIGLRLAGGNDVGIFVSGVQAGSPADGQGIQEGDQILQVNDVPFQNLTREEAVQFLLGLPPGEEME

Binder | pKd (APBA3_1, O96018) | pKd (ARHGEF11, O15085) | pKd (CASK, O14936) | pKd (DFNB31_2, Q9P202) | pKd (DFNB31_3, Q9P202) | pKd (DLG1_1, Q12959) | pKd (DLG1_2, Q12959) | pKd (GIPC2, Q8TF65) | pKd (GOPC, Q9HD26) | pKd (HTRA3, P83110) | pKd (IL16_3, Q14005) | pKd (Inadl_10, Q8NI35) | pKd (Inadl_4, Q8NI35) | pKd (LNX2_2, Q8N448) | pKd (MAGI2_6, Q86UL8) | pKd (MPDZ_12, O75970) | pKd (NHERF4_2, Q86UT5) | pKd (NOS1, P29475) | pKd (PICK1, Q9NRD5) | pKd (PTPN3, P26045) | other results
YAEKRMLTEV [KCNA6, P17658] | below the threshold | 5.03 | below the threshold | below the threshold | 4.15 | 3.91 | 4.23 | below the threshold | 3.74 | below the threshold | below the threshold | below the threshold | below the threshold | 4.04 | below the threshold | 3.55 | below the threshold | below the threshold | below the threshold | 4.32 | pKd (RAPGEF6, Q8TEU7): 3.48; pKd (SCRIB_1, Q14160): 3.63; pKd (SNTB1, Q13884): below the threshold; pKd (SNTG1, Q9NSN8): 3.57; pKd (SNX27, Q96L92): below the threshold; pKd (TJP1_3, Q07157): below the threshold; pKd (TJP3_3, O95049): below the threshold
PALKNGQYWV [CSPG4, Q6UVK1] | below the threshold | 3.8 | below the threshold | below the threshold | below the threshold | below the threshold | below the threshold | below the threshold | below the threshold | 5.46 | below the threshold | below the threshold | below the threshold | 5.28 | 3.67 | 3.61 | below the threshold | 4.09 | below the threshold | 4.1 | pKd (RAPGEF6, Q8TEU7): below the threshold; pKd (SCRIB_1, Q14160): below the threshold; pKd (SNTB1, Q13884): below the threshold; pKd (SNTG1, Q9NSN8): below the threshold; pKd (SNX27, Q96L92): 3.77; pKd (TJP1_3, Q07157): 3.95; pKd (TJP3_3, O95049): 4.81
FLVTEFNVML [DFNB31, Q9P202] | below the threshold | 3.95 | below the threshold | below the threshold | below the threshold | below the threshold | below the threshold | below the threshold | below the threshold | below the threshold | below the threshold | below the threshold | below the threshold | below the threshold | 4.78 | below the threshold | below the threshold | below the threshold | below the threshold | 3.89 | pKd (RAPGEF6, Q8TEU7): below the threshold; pKd (SCRIB_1, Q14160): 3.86; pKd (SNTB1, Q13884): below the threshold; pKd (SNTG1, Q9NSN8): below the threshold; pKd (SNX27, Q96L92): 4.4; pKd (TJP1_3, Q07157): below the threshold; pKd (TJP3_3, O95049): below the threshold
AHGSTRDQSI [KCNB1, Q14721] | below the threshold | 4.4 | below the threshold | below the threshold | 3.77 | below the threshold | below the threshold | below the threshold | below the threshold | below the threshold | below the threshold | below the threshold | below the threshold | below the threshold | below the threshold | 3.62 | below the threshold | below the threshold | 4.15 | 4.07 | pKd (RAPGEF6, Q8TEU7): 3.91; pKd (SCRIB_1, Q14160): below the threshold; pKd (SNTB1, Q13884): below the threshold; pKd (SNTG1, Q9NSN8): 3.5; pKd (SNX27, Q96L92): below the threshold; pKd (TJP1_3, Q07157): 3.48; pKd (TJP3_3, O95049): 3.51
PEKVSNTTVV [IGSF5, Q9NSI5] | below the threshold | 4.24 | below the threshold | below the threshold | 3.83 | 4.25 | 4.64 | below the threshold | 3.61 | below the threshold | below the threshold | below the threshold | below the threshold | 5.14 | below the threshold | below the threshold | below the threshold | 3.64 | 4.15 | below the threshold | pKd (RAPGEF6, Q8TEU7): below the threshold; pKd (SCRIB_1, Q14160): 3.56; pKd (SNTB1, Q13884): 3.93; pKd (SNTG1, Q9NSN8): below the threshold; pKd (SNX27, Q96L92): 4.51; pKd (TJP1_3, Q07157): below the threshold; pKd (TJP3_3, O95049): below the threshold
